From patent US20200002414A1 (published 2020)
Read-outs that look alike come from different tables or passages of the source.

Legend:
[1] = molecular target: T1, human Ror2 (human, UniProt Q01974 34-403, limits assumed); assay: ELISA, human Ror2, pH 7.4
T1 construct: also called hROR2; receptor tyrosine kinase-like orphan receptor 2

[2] = molecular target: T1, human Ror2; assay: ELISA, human Ror2; ratio of signal at pH 6.0 to pH 7.4
[3] = molecular target: T1, human Ror2; assay: ELISA, human Ror2, pH 6.0
[4] = molecular target: T1, human Ror2; assay: ELISA, human Ror2, pH 6.0; remark: listed apart in the source
[5] = molecular target: T1, human Ror2; assay: ELISA, human Ror2; ratio of signal at pH 6.0 to pH 7.4; remark: listed apart in the source
[6] = molecular target: T1, human Ror2; assay: ELISA, human Ror2, pH 7.4; remark: listed apart in the source

T1 sequence (Q01974 34-403 limits assumed): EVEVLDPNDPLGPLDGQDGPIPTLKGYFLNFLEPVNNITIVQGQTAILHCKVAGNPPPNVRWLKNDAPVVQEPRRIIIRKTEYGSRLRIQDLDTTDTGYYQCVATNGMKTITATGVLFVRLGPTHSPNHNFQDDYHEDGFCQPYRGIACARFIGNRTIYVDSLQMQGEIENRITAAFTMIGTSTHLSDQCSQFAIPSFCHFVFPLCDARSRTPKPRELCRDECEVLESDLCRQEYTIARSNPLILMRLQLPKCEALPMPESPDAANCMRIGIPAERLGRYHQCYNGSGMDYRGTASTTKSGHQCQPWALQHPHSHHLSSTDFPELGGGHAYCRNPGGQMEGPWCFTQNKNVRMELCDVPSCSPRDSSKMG

Binder	Affinity ELISA pH 7.4 [1]	ratio, pH 6.0/7.4 [2]	Affinity ELISA pH 6.0 [3]	Affinity ELISA pH 6.0 [4]	ratio, pH 6.0/7.4 [5]	Affinity ELISA pH 7.4 [6]
LC-V029E (antibody, V domains shown) VH: EVQLQQSGPELVKPGASVKISCKTSGYTFTEYTMHWMKQSHRKSLEWIGGINTNNGGTGYNQKFKGKATLTVDKSSSTAYMELRSLTSEDSAVYFCARGSLYSYGNSYFDYWGQGTLVTVSS VL: QIVLTQSPAIMSASPGEKVTITCSATSSESYMHWFQQKPGTSPKLWIYGTSNLASGVPARFSGSGSGTSYSLTISRMEAEDAATYYCQQRSSYPFTFGQGTKVEIK	0.129	3.15	0.406	–	–	–
LC-Y031D (antibody, V domains shown) VH: EVQLQQSGPELVKPGASVKISCKTSGYTFTEYTMHWMKQSHRKSLEWIGGINTNNGGTGYNQKFKGKATLTVDKSSSTAYMELRSLTSEDSAVYFCARGSLYSYGNSYFDYWGQGTLVTVSS VL: QIVLTQSPAIMSASPGEKVTITCSATSSVSDMHWFQQKPGTSPKLWIYGTSNLASGVPARFSGSGSGTSYSLTISRMEAEDAATYYCQQRSSYPFTFGQGTKVEIK	0.405	2.25	0.911	–	–	–
LC-H033G (antibody, V domains shown) VH: EVQLQQSGPELVKPGASVKISCKTSGYTFTEYTMHWMKQSHRKSLEWIGGINTNNGGTGYNQKFKGKATLTVDKSSSTAYMELRSLTSEDSAVYFCARGSLYSYGNSYFDYWGQGTLVTVSS VL: QIVLTQSPAIMSASPGEKVTITCSATSSVSYMGWFQQKPGTSPKLWIYGTSNLASGVPARFSGSGSGTSYSLTISRMEAEDAATYYCQQRSSYPFTFGQGTKVEIK	0.536	2.06	1.1	–	–	–
LC-H033L (antibody, V domains shown) VH: EVQLQQSGPELVKPGASVKISCKTSGYTFTEYTMHWMKQSHRKSLEWIGGINTNNGGTGYNQKFKGKATLTVDKSSSTAYMELRSLTSEDSAVYFCARGSLYSYGNSYFDYWGQGTLVTVSS VL: QIVLTQSPAIMSASPGEKVTITCSATSSVSYMLWFQQKPGTSPKLWIYGTSNLASGVPARFSGSGSGTSYSLTISRMEAEDAATYYCQQRSSYPFTFGQGTKVEIK	0.332	2.08	0.69	–	–	–
HC-M034D (antibody, V domains shown) VH: EVQLQQSGPELVKPGASVKISCKTSGYTFTEYTDHWMKQSHRKSLEWIGGINTNNGGTGYNQKFKGKATLTVDKSSSTAYMELRSLTSEDSAVYFCARGSLYSYGNSYFDYWGQGTLVTVSS VL: QIVLTQSPAIMSASPGEKVTITCSATSSVSYMHWFQQKPGTSPKLWIYGTSNLASGVPARFSGSGSGTSYSLTISRMEAEDAATYYCQQRSSYPFTFGQGTKVEIK	–	–	–	1.24	5.9	0.211
HC-M034E (antibody, V domains shown) VH: EVQLQQSGPELVKPGASVKISCKTSGYTFTEYTEHWMKQSHRKSLEWIGGINTNNGGTGYNQKFKGKATLTVDKSSSTAYMELRSLTSEDSAVYFCARGSLYSYGNSYFDYWGQGTLVTVSS VL: QIVLTQSPAIMSASPGEKVTITCSATSSVSYMHWFQQKPGTSPKLWIYGTSNLASGVPARFSGSGSGTSYSLTISRMEAEDAATYYCQQRSSYPFTFGQGTKVEIK	–	–	–	1.17	6.3	0.185
HC-M034Y (antibody, V domains shown) VH: EVQLQQSGPELVKPGASVKISCKTSGYTFTEYTYHWMKQSHRKSLEWIGGINTNNGGTGYNQKFKGKATLTVDKSSSTAYMELRSLTSEDSAVYFCARGSLYSYGNSYFDYWGQGTLVTVSS VL: QIVLTQSPAIMSASPGEKVTITCSATSSVSYMHWFQQKPGTSPKLWIYGTSNLASGVPARFSGSGSGTSYSLTISRMEAEDAATYYCQQRSSYPFTFGQGTKVEIK	–	–	–	0.903	2.31	0.391
HC-G050S (antibody, V domains shown) VH: EVQLQQSGPELVKPGASVKISCKTSGYTFTEYTMHWMKQSHRKSLEWIGSINTNNGGTGYNQKFKGKATLTVDKSSSTAYMELRSLTSEDSAVYFCARGSLYSYGNSYFDYWGQGTLVTVSS VL: QIVLTQSPAIMSASPGEKVTITCSATSSVSYMHWFQQKPGTSPKLWIYGTSNLASGVPARFSGSGSGTSYSLTISRMEAEDAATYYCQQRSSYPFTFGQGTKVEIK	–	–	–	0.823	2.6	0.318
HC-I051E (antibody, V domains shown) VH: EVQLQQSGPELVKPGASVKISCKTSGYTFTEYTMHWMKQSHRKSLEWIGGENTNNGGTGYNQKFKGKATLTVDKSSSTAYMELRSLTSEDSAVYFCARGSLYSYGNSYFDYWGQGTLVTVSS VL: QIVLTQSPAIMSASPGEKVTITCSATSSVSYMHWFQQKPGTSPKLWIYGTSNLASGVPARFSGSGSGTSYSLTISRMEAEDAATYYCQQRSSYPFTFGQGTKVEIK	–	–	–	1.04	10.4	0.1
HC-N052C (antibody, V domains shown) VH: EVQLQQSGPELVKPGASVKISCKTSGYTFTEYTMHWMKQSHRKSLEWIGGICTNNGGTGYNQKFKGKATLTVDKSSSTAYMELRSLTSEDSAVYFCARGSLYSYGNSYFDYWGQGTLVTVSS VL: QIVLTQSPAIMSASPGEKVTITCSATSSVSYMHWFQQKPGTSPKLWIYGTSNLASGVPARFSGSGSGTSYSLTISRMEAEDAATYYCQQRSSYPFTFGQGTKVEIK	–	–	–	0.995	2.31	0.431
HC-N052L (antibody, V domains shown) VH: EVQLQQSGPELVKPGASVKISCKTSGYTFTEYTMHWMKQSHRKSLEWIGGILTNNGGTGYNQKFKGKATLTVDKSSSTAYMELRSLTSEDSAVYFCARGSLYSYGNSYFDYWGQGTLVTVSS VL: QIVLTQSPAIMSASPGEKVTITCSATSSVSYMHWFQQKPGTSPKLWIYGTSNLASGVPARFSGSGSGTSYSLTISRMEAEDAATYYCQQRSSYPFTFGQGTKVEIK	–	–	–	0.911	2.1	0.433
HC-N052V (antibody, V domains shown) VH: EVQLQQSGPELVKPGASVKISCKTSGYTFTEYTMHWMKQSHRKSLEWIGGIVTNNGGTGYNQKFKGKATLTVDKSSSTAYMELRSLTSEDSAVYFCARGSLYSYGNSYFDYWGQGTLVTVSS VL: QIVLTQSPAIMSASPGEKVTITCSATSSVSYMHWFQQKPGTSPKLWIYGTSNLASGVPARFSGSGSGTSYSLTISRMEAEDAATYYCQQRSSYPFTFGQGTKVEIK	–	–	–	0.87	2.56	0.34
HC-T053D (antibody, V domains shown) VH: EVQLQQSGPELVKPGASVKISCKTSGYTFTEYTMHWMKQSHRKSLEWIGGINDNNGGTGYNQKFKGKATLTVDKSSSTAYMELRSLTSEDSAVYFCARGSLYSYGNSYFDYWGQGTLVTVSS VL: QIVLTQSPAIMSASPGEKVTITCSATSSVSYMHWFQQKPGTSPKLWIYGTSNLASGVPARFSGSGSGTSYSLTISRMEAEDAATYYCQQRSSYPFTFGQGTKVEIK	–	–	–	1.11	4.99	0.222
HC-T053E (antibody, V domains shown) VH: EVQLQQSGPELVKPGASVKISCKTSGYTFTEYTMHWMKQSHRKSLEWIGGINENNGGTGYNQKFKGKATLTVDKSSSTAYMELRSLTSEDSAVYFCARGSLYSYGNSYFDYWGQGTLVTVSS VL: QIVLTQSPAIMSASPGEKVTITCSATSSVSYMHWFQQKPGTSPKLWIYGTSNLASGVPARFSGSGSGTSYSLTISRMEAEDAATYYCQQRSSYPFTFGQGTKVEIK	–	–	–	0.54	3.44	0.157
HC-A097I (antibody, V domains shown) VH: EVQLQQSGPELVKPGASVKISCKTSGYTFTEYTMHWMKQSHRKSLEWIGGINTNNGGTGYNQKFKGKATLTVDKSSSTAYMELRSLTSEDSAVYFCIRGSLYSYGNSYFDYWGQGTLVTVSS VL: QIVLTQSPAIMSASPGEKVTITCSATSSVSYMHWFQQKPGTSPKLWIYGTSNLASGVPARFSGSGSGTSYSLTISRMEAEDAATYYCQQRSSYPFTFGQGTKVEIK	–	–	–	1.89	1.89	1.73
HC-A097M (antibody, V domains shown) VH: EVQLQQSGPELVKPGASVKISCKTSGYTFTEYTMHWMKQSHRKSLEWIGGINTNNGGTGYNQKFKGKATLTVDKSSSTAYMELRSLTSEDSAVYFCMRGSLYSYGNSYFDYWGQGTLVTVSS VL: QIVLTQSPAIMSASPGEKVTITCSATSSVSYMHWFQQKPGTSPKLWIYGTSNLASGVPARFSGSGSGTSYSLTISRMEAEDAATYYCQQRSSYPFTFGQGTKVEIK	–	–	–	1.98	1.98	1.7
HC-A097S (antibody, V domains shown) VH: EVQLQQSGPELVKPGASVKISCKTSGYTFTEYTMHWMKQSHRKSLEWIGGINTNNGGTGYNQKFKGKATLTVDKSSSTAYMELRSLTSEDSAVYFCSRGSLYSYGNSYFDYWGQGTLVTVSS VL: QIVLTQSPAIMSASPGEKVTITCSATSSVSYMHWFQQKPGTSPKLWIYGTSNLASGVPARFSGSGSGTSYSLTISRMEAEDAATYYCQQRSSYPFTFGQGTKVEIK	–	–	–	1.67	1.67	1.69
HC-A097T (antibody, V domains shown) VH: EVQLQQSGPELVKPGASVKISCKTSGYTFTEYTMHWMKQSHRKSLEWIGGINTNNGGTGYNQKFKGKATLTVDKSSSTAYMELRSLTSEDSAVYFCTRGSLYSYGNSYFDYWGQGTLVTVSS VL: QIVLTQSPAIMSASPGEKVTITCSATSSVSYMHWFQQKPGTSPKLWIYGTSNLASGVPARFSGSGSGTSYSLTISRMEAEDAATYYCQQRSSYPFTFGQGTKVEIK	–	–	–	1.83	1.67	1.69
